Consider 32 variants from the RNAGym collection of RNA variant scans (doi:10.7554/elife.80360).

B1: HDV Ribozyme (parent)
chain: GGCCGGCAUGGUCCCAGCCUCCUCGCUGGCGCCGGCUGGGCAACAUUCCGAGGGGACCGUCCCCUCGGUAAUGGCGAAUGGGACCCA

In the data set the parent is B1. As to the kind of experiment: self-cleavage, relative activity (ratio to wild type); higher = more cleavage; co-transcriptional.
GGCCGGCAUGGUCCCAGCCUCCUCGCUGGCCCCGGCUGGGCAACAUUCCGAGGGAACCGUCCCCUCGGUAAUGGCGAAUGGGACCCA [G31C G55A]: the self-cleavage worked out at 0.546.

As for GGCCGGCAUGGUCCCAGCCUCCUCGCUGGCCCCGGCUGGGCAACAUUCCGAGUGGACCGUCCCCUCGGUAAUGGCGAAUGGGACCCA [G31C G53U], the self-cleavage worked out at 0.496. As to GGCCGGCAUGGUCCCAGCCUCCUCGCUGGCCCCGGCUGGGCAACAUUCCGAGAGGACCGUCCCCUCGGUAAUGGCGAAUGGGACCCA [G31C G53A], the self-cleavage is 0.572. The figure for GGCCGGCAUGGUCCCAGCCUCCUCGCUGGCCCCGGCUGGGCAACAUGCCGAGGGGACCGUCCCCUCGGUAAUGGCGAAUGGGACCCA [G31C U47G] is 0.383. The figure for GGCCGGCAUGGUCCCAGCCUCCUCGCUGGCCCCGGCUGGGCAACAUCCCGAGGGGACCGUCCCCUCGGUAAUGGCGAAUGGGACCCA [G31C U47C] is 0.499; for GGCCGGCAUGGUCCCAGCCUCCUCGCUGGCCCCGGCUGGGCAACAUUCCGAGGGGACCGUCCCCUAGGUAAUGGCGAAUGGGACCCA [G31C C66A] it is 0.405. Next, GGCCGGCAUGGUCCCAGCCUCCUCGCUGGCCCCGGCUGGGUAACAUUCCGAGGGGACCGUCCCCUCGGUAAUGGCGAAUGGGACCCA [G31C C41U]: 0.138; GGCCGGCAUGGUCCCAGCCUCCUCGCUGGCCCCGGCUGGGCAACAUUCCGACGGGACCGUCCCCUCGGUAAUGGCGAAUGGGACCCA [G31C G52C]: 0.277. Consider GGCCGGCAUGGUCCCAGCCUCCUCGCUGGCCCCGGCUGGGCAACAUUCCGAGGGGACCGUCCCCUCGGUAAUGGCGAAUGGGACUCA [G31C C85U], for which the self-cleavage worked out at 0.299. The figure for GGCCGGCAUGGUCCCAGCCUCCUCGCUGGCCCCGGCUGGGCAACAUUCCGAGGGGACCGUCCCCUCGGUAAUGGCGAAUGGGACACA [G31C C85A] is 0.317; for GGCCGGCAUGGUCCCAGCCUCCUCGCUGGCCCCGGCUGGGCAACAUUCCGAGGGGACCGUCCCCUCUGUAAUGGCGAAUGGGACCCA [G31C G67U] it is 0.402. Next, GGCCGGCAUGGUCCCAGCCUCCUCGCUGGCCCCGGCUGGGCAACAUUCCGAGGGGACCGUCCCCUCCGUAAUGGCGAAUGGGACCCA [G31C G67C]: 0.272. For the variant GGCCGGCAUGGUCCCAGCCUCCUCGCUGGCCCCGGCUGGGCAACAUUCCGAGGGGACCGUCCCCACGGUAAUGGCGAAUGGGACCCA [G31C U65A], the self-cleavage stood at 0.394. Consider GGCCGGCAUGGUCCCAGCCUCCUCGCUGGCCCCGGCUGGGCAACAUUCCGAGGGGACCGUCCCCGCGGUAAUGGCGAAUGGGACCCA [G31C U65G], for which the self-cleavage came to 0.48. Regarding GGCCGGCAUGGUCCCAGCCUCCUCGCUGGCCCCGGCCGGGCAACAUUCCGAGGGGACCGUCCCCUCGGUAAUGGCGAAUGGGACCCA [G31C U37C], the self-cleavage was determined as 0.0707. The figure for GGCCGGCAUGGUCCCAGCCUCCUCGCUGGCCCCGGCUGGGCAACACUCCGAGGGGACCGUCCCCUCGGUAAUGGCGAAUGGGACCCA [G31C U46C] is 0.178; for GGCCGGCAUGGUCCCAGCCUCCUCGCUGGCCCCGGCUGGGCAACAUUCCGAGGGGAACGUCCCCUCGGUAAUGGCGAAUGGGACCCA [G31C C57A] it is 0.282.

For the variant GGCCGGCAUGGUCCCAGCCUCCUCGCUGGCCCCGGCUGGGCAACAUUCCGAGGGGAGCGUCCCCUCGGUAAUGGCGAAUGGGACCCA [G31C C57G], the self-cleavage was found to be 0.291. For GGCCGGCAUGGUCCCAGCCUCCUCGCUGGCCCCAGCUGGGCAACAUUCCGAGGGGACCGUCCCCUCGGUAAUGGCGAAUGGGACCCA [G31C G34A], the self-cleavage was 0.0963. The figure for GGCCGGCAUGGUCCCAGCCUCCUCGCUGGCCCCGGCUGGGCAACAUUCCGAGGGGACCAUCCCCUCGGUAAUGGCGAAUGGGACCCA [G31C G59A] is 0.483; for GGCCGGCAUGGUCCCAGCCUCCUCGCUGGCCCCGGCUGGGCAACAUUCCGAGGGGACCCUCCCCUCGGUAAUGGCGAAUGGGACCCA [G31C G59C] it is 0.378. The figure for GGCCGGCAUGGUCCCAGCCUCCUCGCUGGCCCCGGCUGGGCAACAUUCCGAGGGGACCGUCCCCUCGGUAAUGGAGAAUGGGACCCA [G31C C75A] is 0.13. On to GGCCGGCAUGGUCCCAGCCUCCUCGCUGGCCCCGGCUGGGCAACAUUCCGAGGGGACCGUCCCCUCGGUAAUGGUGAAUGGGACCCA [G31C C75U], for which the self-cleavage was found to be 0.111. Next, GGCCGGCAUGGUCCCAGCCUCCUCGCUGGCCCCGGCUGGGCAAUAUUCCGAGGGGACCGUCCCCUCGGUAAUGGCGAAUGGGACCCA [G31C C44U]: 0.106. Next, GGCCGGCAUGGUCCCAGCCUCCUCGCUGGCCCCGGCUGAGCAACAUUCCGAGGGGACCGUCCCCUCGGUAAUGGCGAAUGGGACCCA [G31C G39A]: 0.0554; GGCCGGCAUGGUCCCAGCCUCCUCGCUGGCCCCGACUGGGCAACAUUCCGAGGGGACCGUCCCCUCGGUAAUGGCGAAUGGGACCCA [G31C G35A]: 0.16. The figure for GGCCGGCAUGGUCCCAGCCUCCUCGCUGGCCCCGGCUGGGCAACAUUCCGAGGGGACCGUCCCCUCGCUAAUGGCGAAUGGGACCCA [G31C G68C] is 0.138; for GGCCGGCAUGGUCCCAGCCUCCUCGCUGGCCCCGGCUGGGCAACAUUCCGAGGGGACCGUCCCCUCGUUAAUGGCGAAUGGGACCCA [G31C G68U] it is 0.233. In the case of GGCCGGCAUGGUCCCAGCCUCCUCGCUGGCCCCGGCUGGGCAACAUUCCAAGGGGACCGUCCCCUCGGUAAUGGCGAAUGGGACCCA [G31C G50A], the self-cleavage came to 0.343.

Take GGCCGGCAUGGUCCCAGCCUCCUCGCUGGCCCCGGCUGGGCAACAUUCCUAGGGGACCGUCCCCUCGGUAAUGGCGAAUGGGACCCA [G31C G50U]: the self-cleavage was determined as 0.208.

Turning to GGCCGGCAUGGUCCCAGCCUCCUCGCUGGCUCCGGCUGGGCAUCAUUCCGAGGGGACCGUCCCCUCGGUAAUGGCGAAUGGGACCCA [G31U A43U], the self-cleavage is 0.149. The figure for GGCCGGCAUGGUCCCAGCCUCCUCGCUGGCUCCGGCUGGGCACCAUUCCGAGGGGACCGUCCCCUCGGUAAUGGCGAAUGGGACCCA [G31U A43C] is 0.0504.
